The values below come from the Immune Epitope Database (IEDB).

Some targets named below: HLA-A*02:06; HLA-A*02:03; HLA-A*02:02; HLA-A*68:01; HLA-A*11:01; HLA-A*33:01; HLA-A*03:01; HLA-A*31:01.
Common to all, as to test: IEDB peptide-MHC binding, purified MHC/competitive/radioactivity; filed as Kd, often an IC50 or EC50 that approximates it; ≥ and ≤ were set here for values at or beyond the usual limits of such assays
Setting [1] is: source organism: Vaccinia virus WR.
Where [2] appears, read: source organism: Dengue virus 2 Jamaica/1409/1983.
Setting [3] is: source organism: Dengue virus 1 Brazil/97-11/1997.
Setting [4] is: source organism: Vaccinia virus Copenhagen.
Setting [5] is: source organism: SARS coronavirus Tor2.
Where [6] appears, read: source organism: Mammarenavirus guanaritoense.
Where [7] appears, read: source organism: Mammarenavirus machupoense.
Where [8] appears, read: source organism: Mammarenavirus brazilense.

Where only a bound is given, the exact number is not on record here.

On to EAKTHFSTT, for which the equilibrium dissociation constant (Kd) (usually a measure of binding affinity in units of concentration) is at least 55300 nM in the assay with HLA-A*02:06 (setting [1]), at least 25100 nM in the assay with HLA-A*02:03 (setting [1]) and at least 36600 nM with HLA-A*02:02 (setting [1]).

GLKSKTHAV: the Kd with HLA-A*02:03 (source organism: Homo sapiens) was found to be 1.58 nM.

In the case of FMTATPPGAT, the Kd with HLA-A*02:03 (source organism: Dengue virus 4 Philippines/H241/1956) was 29.4 nM.

For KQLGQVMLLI, the Kd with HLA-A*02:06 (setting [2]) is 11 nM.

WVMDTLNGIM: the results for the Kd with HLA-A*02:06 (setting [1]), in the assay with HLA-A*02:03 (setting [1]) and in the assay with HLA-A*02:02 (setting [1]) were 129 nM, 194 nM and 1330 nM, respectively.

Consider DTMSIYIAVA, for which the Kd is 1480 nM with HLA-A*02:06 (setting [1]), 23.7 nM in the assay with HLA-A*02:03 (setting [1]) and 19.5 nM with HLA-A*02:02 (setting [1]).

Turning to LQQNNSFII, the Kd in the assay with HLA-A*02:06 (setting [1]) was found to be 423 nM; with HLA-A*02:03 (setting [1]), 5170 nM; with HLA-A*02:02 (setting [1]), 11700 nM.

In the case of FLQISRVNDL, the Kd was determined as 583 nM with HLA-A*02:06 (setting [1]), 67.1 nM in the assay with HLA-A*02:03 (setting [1]) and 5.18 nM with HLA-A*02:02 (setting [1]).

On to DQTHIKTIAV, for which the Kd is 1000 nM in the assay with HLA-A*02:06 (setting [1]), 390 nM with HLA-A*02:03 (setting [1]) and 2170 nM with HLA-A*02:02 (setting [1]).

Consider MLDDFSAGA, for which the Kd in the assay with HLA-A*02:06 (setting [1]) was 114 nM; in the assay with HLA-A*02:03 (setting [1]), 73.1 nM; with HLA-A*02:02 (setting [1]), 68.4 nM.

For the sequence TVQEFIFSAL, the results for the Kd with HLA-A*02:06 (setting [1]), in the assay with HLA-A*02:03 (setting [1]) and with HLA-A*02:02 (setting [1]) were 43.9 nM, 90 nM and 80.7 nM, respectively.

With CTSEIQNVT, the figures for the Kd in the assay with HLA-A*02:06 (setting [1]), with HLA-A*02:03 (setting [1]) and with HLA-A*02:02 (setting [1]) were 10200 nM, 5180 nM and 188 nM, respectively.

Regarding SMVSAGSGEV, the Kd with HLA-A*02:03 (setting [3]) was 144 nM.

With SLFPLCLSTT, the Kd with HLA-A*02:03 (setting [3]) stood at 0.3 nM.

As for VTPEYIKDL, the Kd with HLA-A*02:06 (setting [1]) is 1760 nM; in the assay with HLA-A*02:03 (setting [1]), at least 78100 nM; in the assay with HLA-A*02:02 (setting [1]), 10400 nM.

Consider NLFDIPLLT, for which the figures for the Kd with HLA-A*02:06 (setting [4]), with HLA-A*02:03 (setting [4]) and with HLA-A*02:02 (setting [4]) were 1540 nM, 36.3 nM and 135 nM, respectively.

Consider AQMGTLLIA, for which the figures for the Kd in the assay with HLA-A*02:06 (setting [5]), in the assay with HLA-A*02:03 (setting [5]) and with HLA-A*02:02 (setting [5]) were 0.442 nM, 1.55 nM and 64.5 nM, respectively.

For KNAGYLVGR, the Kd is at least 77000 nM in the assay with HLA-A*02:06 (setting [6]), at least 78100 nM in the assay with HLA-A*02:03 (setting [6]) and at least 45600 nM with HLA-A*02:02 (setting [6]).

Take LSKWHTSAR: the Kd came out at 20.7 nM with HLA-A*68:01 (setting [1]); 3430 nM in the assay with HLA-A*11:01 (setting [1]); 15.3 nM in the assay with HLA-A*33:01 (setting [1]); 5830 nM in the assay with HLA-A*03:01 (setting [1]); 1.34 nM with HLA-A*31:01 (setting [1]).

Take RSTIFDIVSK: the Kd with HLA-A*68:01 (setting [1]) is 79.2 nM; with HLA-A*11:01 (setting [1]), 1.97 nM; with HLA-A*33:01 (setting [1]), 6500 nM; with HLA-A*03:01 (setting [1]), 81.3 nM; with HLA-A*31:01 (setting [1]), 222 nM.

Consider VSDFRDYQSY, for which the Kd with HLA-A*68:01 (setting [1]) is at least 51200 nM; with HLA-A*11:01 (setting [1]) it was 4640 nM; with HLA-A*33:01 (setting [1]), at least 70000 nM; in the assay with HLA-A*03:01 (setting [1]), at least 32200 nM; with HLA-A*31:01 (setting [1]) it was at least 70000 nM.

Consider LIHDNIMYTY, for which the Kd in the assay with HLA-A*68:01 (setting [1]) was 566 nM; with HLA-A*11:01 (setting [1]), 238 nM; with HLA-A*33:01 (setting [1]) it was at least 32300 nM; with HLA-A*03:01 (setting [1]) it was 45.3 nM; with HLA-A*31:01 (setting [1]), 4160 nM.

In the case of RIVTVTTKDY, the Kd is 1550 nM with HLA-A*68:01 (setting [1]); 600 nM with HLA-A*11:01 (setting [1]); at least 70000 nM in the assay with HLA-A*33:01 (setting [1]); 427 nM with HLA-A*03:01 (setting [1]); 18300 nM in the assay with HLA-A*31:01 (setting [1]).

Consider TSKTTILSK, for which the Kd is 1110 nM with HLA-A*68:01 (setting [1]); 403 nM with HLA-A*11:01 (setting [1]); at least 37700 nM in the assay with HLA-A*33:01 (setting [1]); 4520 nM with HLA-A*03:01 (setting [1]); 2020 nM in the assay with HLA-A*31:01 (setting [1]).

On to LLSINSSFY, for which the Kd with HLA-A*68:01 (setting [1]) was found to be 3460 nM; in the assay with HLA-A*11:01 (setting [1]), 479 nM; with HLA-A*33:01 (setting [1]), 6340 nM; in the assay with HLA-A*03:01 (setting [1]), 986 nM; with HLA-A*31:01 (setting [1]) it was 2390 nM.

Turning to VMNIERQDYR, the dissociation constant (Kd) with HLA-A*68:01 (setting [1]) is 153 nM; with HLA-A*11:01 (setting [1]), 4140 nM; with HLA-A*33:01 (setting [1]) it was 65.1 nM; with HLA-A*03:01 (setting [1]), 11400 nM; with HLA-A*31:01 (setting [1]), 46.7 nM.

Consider GLACYRFVK, for which the Kd with HLA-A*68:01 (setting [4]) stood at 703 nM; in the assay with HLA-A*11:01 (setting [4]), 24 nM; in the assay with HLA-A*33:01 (setting [4]) it was 1830 nM; with HLA-A*03:01 (setting [4]), 22.2 nM; with HLA-A*31:01 (setting [4]), 217 nM.

For HYIHCFRKPH, the Kd with HLA-A*68:01 (setting [7]) is at least 70100 nM; with HLA-A*11:01 (setting [7]), at least 69700 nM; with HLA-A*33:01 (setting [7]) it was 589 nM; with HLA-A*03:01 (setting [7]), at least 70000 nM; in the assay with HLA-A*31:01 (setting [7]) it was 89.8 nM.

In the case of TTEMLSRALK, the Kd in the assay with HLA-A*68:01 (setting [5]) came out at 12.8 nM; with HLA-A*11:01 (setting [5]) it was 67.2 nM; with HLA-A*33:01 (setting [5]), 3910 nM; with HLA-A*03:01 (setting [5]), 101 nM; in the assay with HLA-A*31:01 (setting [5]), 120 nM.

As to LFFTTTLFLH, the Kd in the assay with HLA-A*68:01 (setting [8]) was 445 nM; in the assay with HLA-A*11:01 (setting [8]), 4120 nM; with HLA-A*33:01 (setting [8]), 191 nM; with HLA-A*03:01 (setting [8]), 771 nM; with HLA-A*31:01 (setting [8]), 232 nM.

Consider GMCCIITASI, for which the Kd with HLA-A*02:03 (setting [2]) stood at 84.1 nM.
